± gives the standard deviation of the averaged measurements.
Tested on: Saccharomyces cerevisiae
Assay: protein stability index of tFT-peptide fusion (C-terminal peptide) (PSI (0-1 scale)); higher = more stable (slower turnover)
Conditions: genetic background: wild type; temperature: 30 C
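Further: PSI is a weighted mean of sequencing reads over stability bins, variants kept only with over 10 reads, mCherry proximal and sfGFP distal, peptide attached via GGGS linker.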

| Sequence | protein stability index |
| --- | --- |
| PRYSVRGQPRET | 0.728 ± 0.0061 |
| PSAFQCQWKTSA | 0.6383 ± 0.0014 |
| PSAPFPPVYPLH | 0.687 ± 0.017 |
| PSARASSRTAPS | 0.661 ± 0.015 |
| PSASYLPCRSKL | 0.7474 ± 0.0046 |
| PSCPAPPAARPL | 0.74 ± 0.11 |
| PSCYDPCSPPPH | 0.723 ± 0.047 |
| PSDGCSPSSTGN | 0.696 ± 0.076 |
| PSEFGAGYVMGG | 0.71 ± 0.017 |
| PSELGAGYVMGG | 0.6936 ± 0.0034 |
| PSFHASSLSWFS | 0.745 ± 0.039 |
| PSFLLPPLPPPT | 0.718 ± 0.0086 |
| PSHPPRHCPPAA | 0.6628 ± 0.0024 |
| PSHQRVRGLPSL | 0.697 ± 0.041 |
| PSLLFHPAPFFP | 0.756 ± 0.085 |
| PSLLHPPLPTSP | 0.657 ± 0.036 |
| PSLLSMHSFSLC | 0.68 ± 0.014 |
| PSLPFPPSPPPC | 0.7067 ± 0.0022 |
| PSLPLSPLSDSR | 0.717 ± 0.032 |
| PSLPPAYPSIAI | 0.737 ± 0.067 |
| PSLSDPLAPPQG | 0.757 ± 0.089 |
| PSLSPYPLQPRY | 0.751 ± 0.034 |
| PSLTLPPSPRFP | 0.7585 ± 0.0029 |
| PSNSRPRASPAC | 0.67 ± 0.039 |
| PSPAPSGPAHHP | 0.667 ± 0.05 |
| PSPLALRTPSFS | 0.692 ± 0.02 |

| Sequence | protein stability index |
| --- | --- |
| PSPLPMYPPPTF | 0.693 ± 0.0083 |
| PSPLPVSAPLLP | 0.701 ± 0.039 |
| PSPLTPAAPFPL | 0.674 ± 0.056 |
| PSPPAPPPETSP | 0.713 ± 0.031 |
| PSPPASTPLPPP | 0.684 ± 0.024 |
| PSPPCPPTDPPA | 0.624 ± 0.011 |
| PSPPFLPPPVPL | 0.685 ± 0.056 |
| PSPPHLHLHLAP | 0.665 ± 0.013 |
| PSPPHPPPPLFP | 0.706 ± 0.02 |
| PSPPLCPPRFSP | 0.652 ± 0.025 |
| PSPPLPPLPPSP | 0.575 ± 0.053 |
| PSPPPAPLHSPL | 0.704 ± 0.058 |
| PSPPPAPPPQPS | 0.678 ± 0.052 |
| PSPPPLPSPPSL | 0.738 ± 0.087 |
| PSPPPTPPPFLP | 0.71 ± 0.054 |
| PSPPRKHAPFRP | 0.737 ± 0.0085 |
| PSPRPSPPLPSP | 0.647 ± 0.076 |
| PSPSPLPASFRL | 0.683 ± 0.11 |
| PSPSPPPCPYPP | 0.677 ± 0.054 |
| PSPSSPLPPPPP | 0.794 ± 0.035 |
| PSPTPSPPFPAP | 0.721 ± 0.038 |
| PSPTRLPPPSPH | 0.757 ± 0.008 |
| PSPYFPVPLLPS | 0.701 ± 0.028 |
| PSQKRITDPRET | 0.683 ± 0.047 |
| PSRDGNLYAQCR | 0.618 ± 0.048 |
| PSRPTLLTPLSP | 0.695 ± 0.045 |

| Sequence | protein stability index |
| --- | --- |
| PSRRFLPEKRSL | 0.678 ± 0.0039 |
| PSRRPPLPLPRP | 0.714 ± 0.013 |
| PSRRPPPPPFLP | 0.7 ± 0.036 |
| PSRTSPLSHIPF | 0.676 ± 0.023 |
| PSSFPDPFSPSL | 0.735 ± 0.037 |
| PSSHPLLPPPPP | 0.67 ± 0.06 |
| PSSPHTAIRHPL | 0.671 ± 0.02 |
| PSSPIFPFSSLP | 0.599 ± 0.15 |
| PSSPTYVPPSFL | 0.6754 ± 0.0022 |
| PSSSSWPPPRHP | 0.831 ± 0.18 |
| PSSSYLSCLPSW | 0.703 ± 0.083 |
| PSSTSPQPRLCF | 0.686 ± 0.027 |
| PSTPPPRLHPSS | 0.642 ± 0.032 |
| PSVPSAAPPSSA | 0.703 ± 0.02 |
| PSVRQSSPRFLH | 0.667 ± 0.067 |
| PSYSPPPHPVHR | 0.686 ± 0.05 |
| PTFRLGGYYRKS | 0.703 ± 0.055 |
| PTGLTNPPPCPQ | 0.716 ± 0.11 |
| PTHGPSPPNVAT | 0.6595 ± 0.00038 |
| PTIKPSPRFPLS | 0.71 ± 0.021 |
| PTKLFDTRPRGA | 0.679 ± 0.05 |
| PTLLRRPLPNLG | 0.73 ± 0.02 |
| PTLPPPPRPPAP | 0.657 ± 0.016 |
| PTLPTPAARPGR | 0.696 ± 0.016 |
| PTLSPPSPPPPA | 0.665 ± 0.035 |
| PTPGRSPKRLPE | 0.752 ± 0.026 |

| Sequence | protein stability index |
| --- | --- |
| PTPLPHTRATPT | 0.778 ± 0.015 |
| PTPNPGHTRACL | 0.763 ± 0.23 |
| PTPPCPLVPPRP | 0.72 ± 0.074 |
| PTPPTPTISPTP | 0.651 ± 0.0052 |
| PTQFSSAADLSA | 0.637 ± 0.062 |
| PTRERPSDQPYP | 0.701 ± 0.04 |
| PTRGLTARPFLW | 0.62 ± 0.042 |
| PTRQKRPPYRIK | 0.711 ± 0.031 |
| PTRRPDLFYYSS | 0.74 ± 0.017 |
| PTRSPPPAAIAS | 0.697 ± 0.14 |
| PTSLLPLRLLNS | 0.61185 ± 0.00055 |
| PTSLPPLSRPPP | 0.723 ± 0.029 |
| PTSPLVFFFVPL | 0.624 ± 0.037 |
| PTSQRPFFLISP | 0.704 ± 0.015 |
| PTTTPHPHIATP | 0.711 ± 0.14 |
| PTVFMNIQKQNI | 0.678 ± 0.042 |
| PTVNIDSQSRSP | 0.692 ± 0.079 |
| PVASFLACSIAG | 0.602 ± 0.032 |
| PVCELCLITLRG | 0.59 ± 0.053 |
| PVDDFVCLEVDS | 0.688 ± 0.061 |
| PVFPSFGVSEFV | 0.753 ± 0.059 |
| PVFTLLPTCYCA | 0.6073 ± 0.0025 |
| PVGDDDRTIPRL | 0.661 ± 0.043 |

From the supplement of paper PMC10724198
